Literature values in patent US20070225245A1, “Viral vector driven mutant bacterial cytosine deaminase gene and uses thereof” (priority 1998, published 2007).

Details: cited from earlier work

Molecule	enzyme activity (by 96 h at 37° C.)	retained activity (at 168 h)
yCD: yeast cytosine deaminase (protein, UniProt Q12178 1-158, looked up) Cytosine deaminase: MVTGGMASKWDQKGMDIAYEEAALGYKEGGVPIGGCLINNKDGSVLGRGHNMRFQKGSATLHGEISTLENCGRLEGKVYKDTTLYTTLSPCDMCTGAIIMYGIPRCVVGENVNFKSKGEKYLQTRGHEVVVVDDERCKKIMKQFIDERPQDWFEDIGE	loses all activity	
bCD: wild type bacterial cytosine deaminase (protein, UniProt P25524 2-427, looked up) Cytosine deaminase: SNNALQTIINARLPGEEGLWQIHLQDGKISAIDAQSGVMPITENSLDAEQGLVIPPFVEPHIHLDTTQTAGQPNWNQSGTLFEGIERWAERKALLTHDDVKQRAWQTLKWQIANGIQHVRTHVDVSDATLTALKAMLEVKQEVAPWIDLQIVAFPQEGILSYPNGEALLEEALRLGADVVGAIPHFEFTREYGVESLHKTFALAQKYDRLIDVHCDEIDDEQSRFVETVAALAHHEGMGARVTASHTTAMHSYNGAYTSRLFRLLKMSGINFVANPLVNIHLQGRFDTYPKRRGITRVKEMLESGINVCFGHDDVFDPWYPLGTANMLQVLHMGLHVCQLMGYGQINDGLNLITHHSARTLNLQDYGIAAGNSANLIILPAENGFDALRRQVPVRYSVRGGKVIASTQPAQTTVYLEQPEAIDYKR		100%
